Assay [1] deals with T1, human CD30 (commercial, conjugated to digoxigenin) (human, UniProt P28908 19-379, limits assumed, conjugated to digoxigenin (DIG)).
T1 sequence (looked up): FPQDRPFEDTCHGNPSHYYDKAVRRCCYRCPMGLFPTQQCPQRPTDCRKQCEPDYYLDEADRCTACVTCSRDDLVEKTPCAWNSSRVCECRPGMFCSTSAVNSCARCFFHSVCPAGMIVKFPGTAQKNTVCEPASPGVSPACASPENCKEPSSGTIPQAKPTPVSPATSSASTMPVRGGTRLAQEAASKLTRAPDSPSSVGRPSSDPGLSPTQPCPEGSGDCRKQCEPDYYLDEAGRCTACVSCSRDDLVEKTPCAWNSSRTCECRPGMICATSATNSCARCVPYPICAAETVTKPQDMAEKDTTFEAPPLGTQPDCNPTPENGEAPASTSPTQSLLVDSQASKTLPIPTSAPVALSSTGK
The assay can be described thus: AlphaScreen competition. (Alpha assays give light when donor and acceptor beads are brought close together.)

Assay [2] deals with T1, human CD30 (commercial, conjugated to …). The assay can be described thus: AlphaScreen competition. The source holds these as a separate data set.

Residue numbers refer to the chain shown, from its start. Read-outs that look alike come from different tables or passages of the source.

B1: AC10 H3.18/L3 (antibody, IgG1, name in Kabat numbering, V domains shown)
VH: QIQLVQSGPEVKKPGASVKVSCKASGYTFTDYYINWVRQAPGQGLEWMGWIYPGSGNTKYNEKFQGRFVFSVDTSASTAYLQISSLKAEDTAVYFCANYGNYWFAYWGQGTLVTVSS
VL: DIVLTQSPDSLAVSLGERATINCKASQSVDFDGDSYMNWYQQKPGQPPKVLIYAASNLESGIPARFSGSGSGTDFTLTINSLEAEDAATYYCQQSNEDPWTFGGGTKVEIK
Regarding B1, in assay [1], the “Fold IC50 vs H3/L3” value amounted to 0.13 fold.

B2: AC10 H3.63/L3 (antibody, IgG1, name in Kabat numbering, V domains shown)
VH: B1 VH with N35T, Y106F
VL: B1 VL
As to B2, the “Fold IC50 vs H3/L3” value in assay [1] was determined as 1.24 fold.

B3: AC10 H3.44/L3 (antibody, IgG1, name in Kabat numbering, V domains shown)
VH: B1 VH with N35T, V72R
VL: B1 VL
Consider B3, for which, in assay [1], the “Fold IC50 vs H3/L3” value worked out at 1.76 fold.

B4: AC10 H3.64/L3 (antibody, IgG1, name in Kabat numbering, V domains shown)
VH: B1 VH with N35T, Q109R
VL: B1 VL
Take B4: in assay [1], the “Fold IC50 vs H3/L3” value turned out to be 1.28 fold.

B5: AC10 H3.34/L3 (antibody, IgG1, name in Kabat numbering, V domains shown)
VH: B1 VH with N35T, N61A
VL: B1 VL
For B5, in assay [1], the “Fold IC50 vs H3/L3” value was 1.3 fold.

B6: AC10 H3/L3.1 (antibody, IgG1, name in Kabat numbering, V domains shown)
VH: B1 VH with N35T
VL: B1 VL with D1A
For the molecule B6, the “Fold IC50 vs H3/L3” value in assay [2] came to 1.3 fold.

B7: AC10 H3.45/L3 (antibody, IgG1, name in Kabat numbering, V domains shown)
VH: B1 VH with N35T, T91M
VL: B1 VL
With B7, in assay [1], the “Fold IC50 vs H3/L3” value amounted to 1.14 fold.

B8: AC10 H3.39/L3 (antibody, IgG1, name in Kabat numbering, V domains shown)
VH: B1 VH with N35T, N61D
VL: B1 VL
On to B8, for which the “Fold IC50 vs H3/L3” value in assay [1] is 1 fold.

B9: AC10 H3.50/L3 (antibody, IgG1, name in Kabat numbering, V domains shown)
VH: B1 VH with N35T, A97V
VL: B1 VL
Take B9: in assay [1], the “Fold IC50 vs H3/L3” value amounted to 1.4 fold.

B10: AC10 H3.30/L3 (antibody, IgG1, name in Kabat numbering, V domains shown)
VH: B1 VH with N35T, S55N
VL: B1 VL
Take B10: the “Fold IC50 vs H3/L3” value in assay [1] is 1.45 fold.

B11: AC10 H3.32/L3 (antibody, IgG1, name in Kabat numbering, V domains shown)
VH: B1 VH with N35T, K59I
VL: B1 VL
Regarding B11, the “Fold IC50 vs H3/L3” value in assay [1] is 1.09 fold.

B12: AC10 H3.29/L3 (antibody, IgG1, name in Kabat numbering, V domains shown)
VH: B1 VH with N35T, S55D
VL: B1 VL
Turning to B12, the “Fold IC50 vs H3/L3” value in assay [1] turned out to be 1.81 fold.

B13: AC10 H3.59/L3 (antibody, IgG1, name in Kabat numbering, V domains shown)
VH: B1 VH with N35T, Y106H
VL: B1 VL
Take B13: the “Fold IC50 vs H3/L3” value in assay [1] stood at 1.05 fold.

B14: AC10 H3.53/L3 (antibody, IgG1, name in Kabat numbering, V domains shown)
VH: B1 VH with N35T, N98K
VL: B1 VL
As to B14, the “Fold IC50 vs H3/L3” value in assay [1] amounted to 0.02 fold.

B15: AC10 H3.37/L3 (antibody, IgG1, name in Kabat numbering, V domains shown)
VH: B1 VH with N35T, N61T
VL: B1 VL
For B15, in assay [1], the “Fold IC50 vs H3/L3” value was 1.01 fold.

B16: AC10 H3.21/L3 (antibody, IgG1, name in Kabat numbering, V domains shown)
VH: B1 VH with N35T, G44R
VL: B1 VL
Take B16: the “Fold IC50 vs H3/L3” value in assay [1] was found to be 2.6 fold.

B17: AC10 H3.28/L3 (antibody, IgG1, name in Kabat numbering, V domains shown)
VH: B1 VH with N35T, P53V
VL: B1 VL
B17: the “Fold IC50 vs H3/L3” value in assay [1] worked out at 1.34 fold.

B18: AC10 H3.41/L3 (antibody, IgG1, name in Kabat numbering, V domains shown)
VH: B1 VH with N35T, Q65T
VL: B1 VL
For B18, the “Fold IC50 vs H3/L3” value in assay [1] stood at 1.38 fold.

B19: AC10 H3.36/L3 (antibody, IgG1, name in Kabat numbering, V domains shown)
VH: B1 VH with N35T, N61S
VL: B1 VL
On to B19, for which the “Fold IC50 vs H3/L3” value in assay [1] was 1.24 fold.

B20: AC10 H3.61/L3 (antibody, IgG1, name in Kabat numbering, V domains shown)
VH: B1 VH with N35T, Y106V
VL: B1 VL
As for B20, the “Fold IC50 vs H3/L3” value in assay [1] came out at 1.21 fold.

B21: AC10 H3.49/L3 (antibody, IgG1, name in Kabat numbering, V domains shown)
VH: B1 VH with N35T, A97T
VL: B1 VL
For the molecule B21, the “Fold IC50 vs H3/L3” value in assay [1] was 0.38 fold.

B22: AC10 H3.43/L3 (antibody, IgG1, name in Kabat numbering, V domains shown)
VH: B1 VH with N35T, V72M
VL: B1 VL
For the molecule B22, in assay [1], the “Fold IC50 vs H3/L3” value stood at 0.88 fold.

B23: AC10 H3.58/L3 (antibody, IgG1, name in Kabat numbering, V domains shown)
VH: B1 VH with N35T, A105Q
VL: B1 VL
For B23, in assay [1], the “Fold IC50 vs H3/L3” value was determined as 0.16 fold.

B24: AC10 H3.38/L3 (antibody, IgG1, name in Kabat numbering, V domains shown)
VH: B1 VH with N35T, N61V
VL: B1 VL
Consider B24, for which the “Fold IC50 vs H3/L3” value in assay [1] worked out at 1.14 fold.

B25: AC10 H3.24/L3 (antibody, IgG1, name in Kabat numbering, V domains shown)
VH: B1 VH with N35T, Y52N
VL: B1 VL
Consider B25, for which the “Fold IC50 vs H3/L3” value in assay [1] came to 0.03 fold.

B26: AC10 H3.52/L3 (antibody, IgG1, name in Kabat numbering, V domains shown)
VH: B1 VH with N35T, N98H
VL: B1 VL
As to B26, the “Fold IC50 vs H3/L3” value in assay [1] was found to be 1.24 fold.

B27: AC10 H3.20/L3 (antibody, IgG1, name in Kabat numbering, V domains shown)
VH: B1 VH with N35T, G44A
VL: B1 VL
In the case of B27, the “Fold IC50 vs H3/L3” value in assay [1] came out at 2.04 fold.

B28: AC10 H3.27/L3 (antibody, IgG1, name in Kabat numbering, V domains shown)
VH: B1 VH with N35T, P53A
VL: B1 VL
B28: the “Fold IC50 vs H3/L3” value in assay [1] was found to be 2 fold.

B29: AC10 H3.54/L3 (antibody, IgG1, name in Kabat numbering, V domains shown)
VH: B1 VH with N35T, N98R
VL: B1 VL
B29: the “Fold IC50 vs H3/L3” value in assay [1] amounted to 0 fold.

B30: AC10 H3.33/L3 (antibody, IgG1, name in Kabat numbering, V domains shown)
VH: B1 VH with N35T, K59N
VL: B1 VL
Regarding B30, the “Fold IC50 vs H3/L3” value in assay [1] stood at 0.5 fold.

B31: AC10 H3.42/L3 (antibody, IgG1, name in Kabat numbering, V domains shown)
VH: B1 VH with N35T, V72L
VL: B1 VL
B31: the “Fold IC50 vs H3/L3” value in assay [1] was found to be 0.66 fold.

B32: AC10 H3.23/L3 (antibody, IgG1, name in Kabat numbering, V domains shown)
VH: B1 VH with N35T, W50R
VL: B1 VL
For B32, the “Fold IC50 vs H3/L3” value in assay [1] worked out at 0.16 fold.

B33: AC10 H3.22/L3 (antibody, IgG1, name in Kabat numbering, V domains shown)
VH: B1 VH with N35T, W50I
VL: B1 VL
For B33, in assay [1], the “Fold IC50 vs H3/L3” value was found to be 0.01 fold.

B34: AC10 H3.40/L3 (antibody, IgG1, name in Kabat numbering, V domains shown)
VH: B1 VH with N35T, E62Q
VL: B1 VL
B34: the “Fold IC50 vs H3/L3” value in assay [1] turned out to be 1.83 fold.

B35: AC10 H3.46/L3 (antibody, IgG1, name in Kabat numbering, V domains shown)
VH: B1 VH with N35T, V93M
VL: B1 VL
As to B35, the “Fold IC50 vs H3/L3” value in assay [1] worked out at 1.39 fold.

B36: AC10 H3.60/L3 (antibody, IgG1, name in Kabat numbering, V domains shown)
VH: B1 VH with N35T, Y106S
VL: B1 VL
On to B36, for which, in assay [1], the “Fold IC50 vs H3/L3” value was 0.82 fold.

B37: AC10 H3.62/L3 (antibody, IgG1, name in Kabat numbering, V domains shown)
VH: B1 VH with N35T, Y106L
VL: B1 VL
Turning to B37, the “Fold IC50 vs H3/L3” value in assay [1] came out at 1.22 fold.

B38: AC10 H3.19/L3 (antibody, IgG1, name in Kabat numbering, V domains shown)
VH: B1 VH with N35S
VL: B1 VL
On to B38, for which the “Fold IC50 vs H3/L3” value in assay [1] is 1.11 fold.

B39: AC10 H3.48/L3 (antibody, IgG1, name in Kabat numbering, V domains shown)
VH: B1 VH with N35T, F95Y
VL: B1 VL
For the molecule B39, the “Fold IC50 vs H3/L3” value in assay [1] turned out to be 1.6 fold.

B40: AC10 H3.55/L3 (antibody, IgG1, name in Kabat numbering, V domains shown)
VH: B1 VH with N35T, N98T
VL: B1 VL
Consider B40, for which, in assay [1], the “Fold IC50 vs H3/L3” value is 0.91 fold.

B41: AC10 H3.57/L3 (antibody, IgG1, name in Kabat numbering, V domains shown)
VH: B1 VH with N35T, A105D
VL: B1 VL
Consider B41, for which, in assay [1], the “Fold IC50 vs H3/L3” value was 0.53 fold.

The values above are taken from US7657380.
